Experimental data as given in publication PMC10937945.

Target: HTNV-L (full-length Hantaan virus polymerase, L protein) (Hantaan virus (strain 76-118/Korean …, UniProt P23456 1-2151))
Assay: cryo-EM; 30 mM HEPES pH 8, 250 mM NaCl, 5 mM TCEP ([…]; temperature not stated
Settings: protein: recombinant; tags: N-terminal His6

Sequence of HTNV-L (full-length Hantaan virus polymerase, L protein) (Hantaan virus (P23456 whole entry): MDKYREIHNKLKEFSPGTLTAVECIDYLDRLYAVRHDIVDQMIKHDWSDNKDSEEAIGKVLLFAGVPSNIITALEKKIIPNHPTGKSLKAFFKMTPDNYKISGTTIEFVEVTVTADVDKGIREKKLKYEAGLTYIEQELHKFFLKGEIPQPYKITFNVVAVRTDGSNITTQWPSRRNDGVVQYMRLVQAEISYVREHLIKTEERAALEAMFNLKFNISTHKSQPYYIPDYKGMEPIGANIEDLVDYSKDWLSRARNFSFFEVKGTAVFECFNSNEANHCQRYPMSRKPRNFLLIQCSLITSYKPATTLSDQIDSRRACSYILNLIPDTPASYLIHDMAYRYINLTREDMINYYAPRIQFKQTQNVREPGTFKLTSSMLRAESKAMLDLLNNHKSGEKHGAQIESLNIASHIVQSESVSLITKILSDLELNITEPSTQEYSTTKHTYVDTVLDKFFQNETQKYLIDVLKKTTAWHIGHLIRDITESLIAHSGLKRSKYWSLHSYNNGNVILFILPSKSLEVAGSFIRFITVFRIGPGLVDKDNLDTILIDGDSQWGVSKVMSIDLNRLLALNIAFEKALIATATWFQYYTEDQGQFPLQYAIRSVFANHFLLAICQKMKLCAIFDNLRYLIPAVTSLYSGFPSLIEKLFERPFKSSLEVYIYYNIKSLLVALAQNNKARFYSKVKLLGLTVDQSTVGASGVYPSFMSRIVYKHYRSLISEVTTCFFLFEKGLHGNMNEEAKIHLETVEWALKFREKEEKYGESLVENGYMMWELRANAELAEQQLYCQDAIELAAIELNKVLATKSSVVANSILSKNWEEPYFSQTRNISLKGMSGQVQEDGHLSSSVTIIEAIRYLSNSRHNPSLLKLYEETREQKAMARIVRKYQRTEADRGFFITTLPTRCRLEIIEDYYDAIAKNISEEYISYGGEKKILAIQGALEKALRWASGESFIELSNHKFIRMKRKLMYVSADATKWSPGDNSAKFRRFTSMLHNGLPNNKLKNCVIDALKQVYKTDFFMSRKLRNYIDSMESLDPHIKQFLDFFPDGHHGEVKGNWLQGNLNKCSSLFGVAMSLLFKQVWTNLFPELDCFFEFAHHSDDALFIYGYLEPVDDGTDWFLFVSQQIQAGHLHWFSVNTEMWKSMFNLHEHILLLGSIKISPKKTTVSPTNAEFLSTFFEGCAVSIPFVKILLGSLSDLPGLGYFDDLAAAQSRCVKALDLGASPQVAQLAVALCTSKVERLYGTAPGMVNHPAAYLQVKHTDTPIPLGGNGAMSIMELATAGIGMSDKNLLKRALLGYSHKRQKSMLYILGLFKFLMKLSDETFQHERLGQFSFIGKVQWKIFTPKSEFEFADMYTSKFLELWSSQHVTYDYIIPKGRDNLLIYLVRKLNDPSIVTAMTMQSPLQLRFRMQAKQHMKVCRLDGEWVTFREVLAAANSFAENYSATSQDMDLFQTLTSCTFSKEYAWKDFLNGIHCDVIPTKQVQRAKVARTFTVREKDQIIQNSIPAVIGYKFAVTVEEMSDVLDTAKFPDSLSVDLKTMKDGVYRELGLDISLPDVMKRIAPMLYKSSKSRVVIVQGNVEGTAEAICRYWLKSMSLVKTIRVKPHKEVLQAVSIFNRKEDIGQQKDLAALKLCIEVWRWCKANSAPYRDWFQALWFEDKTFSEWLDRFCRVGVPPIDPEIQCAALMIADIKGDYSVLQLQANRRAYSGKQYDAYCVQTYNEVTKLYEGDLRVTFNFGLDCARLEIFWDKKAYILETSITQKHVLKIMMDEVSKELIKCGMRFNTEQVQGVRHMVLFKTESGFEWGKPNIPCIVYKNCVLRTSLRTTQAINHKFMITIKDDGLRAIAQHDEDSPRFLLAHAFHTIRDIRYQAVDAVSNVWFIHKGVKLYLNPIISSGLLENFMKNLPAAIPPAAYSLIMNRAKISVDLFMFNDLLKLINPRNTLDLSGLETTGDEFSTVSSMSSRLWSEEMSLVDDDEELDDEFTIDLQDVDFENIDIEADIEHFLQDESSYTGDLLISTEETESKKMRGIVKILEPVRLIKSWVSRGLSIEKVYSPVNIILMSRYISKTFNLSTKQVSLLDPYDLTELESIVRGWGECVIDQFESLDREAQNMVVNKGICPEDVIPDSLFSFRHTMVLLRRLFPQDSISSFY

Binder: UAGUAGUAGACACCGCAAGAUGUUA (ssRNA) [5'vRNA]
- binding result: binds
